Experimental data published in patent publication US20080249174A1, “Animal Model for Studying Atherosclerotic Lesions” (THE RESEARCH FOUNDATION OF STATE UNIVERSITY OF NEW YORK, priority 2005, published 2008).

What was measured:
[1] = target: mouse Sptlc2 (serine palmitoyl-CoA transferase subunit 2) (mouse) (UniProt P97363); experiment: cell-based or functional assay
[2] = target: mouse Sptlc1 (serine palmitoyl-CoA transferase subunit 1) (mouse) (UniProt O35704); experiment: cell-based or functional assay

| decrease in Sptlc1 protein mass in Sptlc2+/- mouse liver against WT (Western blot of liver homogenate) [1] | decrease in Sptlc2 protein mass in Sptlc1+/- mouse liver against WT (Western blot of liver homogenate) [2] | Substance |
| --- | --- | --- |
| 70% | – | mouse Sptlc1 (serine palmitoyl-CoA transferase subunit 1) (from UniProt O35704 1-473) (enzyme) |
| – | 53% | mouse Sptlc2 (serine palmitoyl-CoA transferase subunit 2) (from UniProt P97363 1-560) (enzyme) |
